Experimental data taken from PMC3285539 (Nature, 2012).

Tests used:
Rpn1 = target: T1, Rpn1 (S. cerevisiae, UniProt P38764 1-993); assay: cryo-EM structure
T1 sequence: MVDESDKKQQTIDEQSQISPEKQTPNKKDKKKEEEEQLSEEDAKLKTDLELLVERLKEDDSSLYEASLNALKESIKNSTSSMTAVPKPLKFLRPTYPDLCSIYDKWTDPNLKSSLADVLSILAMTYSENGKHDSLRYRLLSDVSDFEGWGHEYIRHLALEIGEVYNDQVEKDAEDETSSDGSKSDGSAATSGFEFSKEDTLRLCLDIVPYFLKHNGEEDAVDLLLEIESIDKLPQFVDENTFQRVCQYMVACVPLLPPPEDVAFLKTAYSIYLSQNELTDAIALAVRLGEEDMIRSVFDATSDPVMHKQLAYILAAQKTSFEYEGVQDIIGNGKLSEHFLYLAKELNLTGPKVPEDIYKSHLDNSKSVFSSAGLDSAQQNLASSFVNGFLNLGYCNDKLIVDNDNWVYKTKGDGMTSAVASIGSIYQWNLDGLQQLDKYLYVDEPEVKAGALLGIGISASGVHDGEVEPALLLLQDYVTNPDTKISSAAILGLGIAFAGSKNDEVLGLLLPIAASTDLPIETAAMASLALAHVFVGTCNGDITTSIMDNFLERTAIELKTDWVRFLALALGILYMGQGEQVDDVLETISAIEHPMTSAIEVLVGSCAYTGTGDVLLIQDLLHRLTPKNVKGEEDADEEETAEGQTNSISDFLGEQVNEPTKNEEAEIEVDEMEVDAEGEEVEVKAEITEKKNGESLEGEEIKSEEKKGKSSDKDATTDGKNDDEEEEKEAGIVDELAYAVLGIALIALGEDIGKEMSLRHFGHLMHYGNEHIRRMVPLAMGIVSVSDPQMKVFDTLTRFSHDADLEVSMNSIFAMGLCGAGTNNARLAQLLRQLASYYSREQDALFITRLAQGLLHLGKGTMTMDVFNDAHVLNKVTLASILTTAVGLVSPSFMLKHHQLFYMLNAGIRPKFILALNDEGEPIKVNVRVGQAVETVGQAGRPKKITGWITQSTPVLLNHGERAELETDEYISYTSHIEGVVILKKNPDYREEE

Rpt2 = Rpt2 (S. cerevisiae, UniProt P40327 1-437); assay: cryo-EM structure
Sequence of Rpt2 (P40327 whole entry): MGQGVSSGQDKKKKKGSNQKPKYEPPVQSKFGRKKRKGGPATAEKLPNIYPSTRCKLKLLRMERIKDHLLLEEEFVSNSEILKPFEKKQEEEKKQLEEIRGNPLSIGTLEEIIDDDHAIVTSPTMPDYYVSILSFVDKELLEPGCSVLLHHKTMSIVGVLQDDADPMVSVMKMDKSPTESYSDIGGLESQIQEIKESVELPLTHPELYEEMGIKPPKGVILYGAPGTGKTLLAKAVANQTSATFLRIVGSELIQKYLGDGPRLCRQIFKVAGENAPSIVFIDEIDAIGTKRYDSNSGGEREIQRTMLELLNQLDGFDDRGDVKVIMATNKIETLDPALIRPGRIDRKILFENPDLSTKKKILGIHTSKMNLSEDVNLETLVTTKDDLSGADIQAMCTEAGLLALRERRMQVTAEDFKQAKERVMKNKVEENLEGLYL

B1: 20S core subunit α4 (natural protein)
chain: MSGYDRALSIFSPDGHIFQVEYALEAVKRGTCAVGVKGKNCVVLGCERRSTLKLQDTRITPSKVSKIDSHVVLSFSGLNADSRILIEKARVEAQSHRLTLEDPVTVEYLTRYVAGVQQRYTQSGGVRPFGVSTLIAGFDPRDDEPKLYQTEPSGIYSSWSAQTIGRNSKTVREFLEKNYDRKEPPATVEECVKLTVRSLLEVVQTGAKNIEITVVKPDSDIVALSSEEINQYVTQIEQEKQEQQEQDKKKKSNH
- binding result (Rpn1): binds
- binding result (Rpt2): binds
